Data published in article PMC9482650, “Quantitative fragmentomics allow affinity mapping of interactomes” (Nature Communications, 2022).

T1: PDZD2_2, O15018
T1 sequence (O15018 329-429, limits assumed, looked up): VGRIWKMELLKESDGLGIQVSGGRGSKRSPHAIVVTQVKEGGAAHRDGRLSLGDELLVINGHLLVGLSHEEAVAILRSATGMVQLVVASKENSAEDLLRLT

T2: GRIP1_2, Q9Y3R0
T2 sequence (Q9Y3R0 145-248, limits assumed, looked up): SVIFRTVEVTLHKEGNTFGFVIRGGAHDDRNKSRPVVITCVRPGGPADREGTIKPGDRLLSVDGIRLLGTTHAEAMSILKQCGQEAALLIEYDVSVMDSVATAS

T3: DFNB31_2, Q9P202
T3 sequence (Q9P202 274-371, limits assumed, looked up): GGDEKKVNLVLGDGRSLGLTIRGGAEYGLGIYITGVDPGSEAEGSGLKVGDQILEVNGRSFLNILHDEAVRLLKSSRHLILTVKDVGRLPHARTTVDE

T4: GRIP1_3, Q9Y3R0
T4 sequence (Q9Y3R0 247-346, limits assumed, looked up): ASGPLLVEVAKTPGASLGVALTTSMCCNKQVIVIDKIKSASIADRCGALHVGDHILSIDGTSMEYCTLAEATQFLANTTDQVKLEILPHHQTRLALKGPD

T5: RAPGEF6, Q8TEU7
T5 sequence (Q8TEU7 525-625, limits assumed, looked up): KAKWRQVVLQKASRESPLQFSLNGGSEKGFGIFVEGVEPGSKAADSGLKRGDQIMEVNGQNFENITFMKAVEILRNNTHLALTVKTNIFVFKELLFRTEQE

T6: MPP6, Q9NZW5
T6 sequence (Q9NZW5 125-219, limits assumed, looked up): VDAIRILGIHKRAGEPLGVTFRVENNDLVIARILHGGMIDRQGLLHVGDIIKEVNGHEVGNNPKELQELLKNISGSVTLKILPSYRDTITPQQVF

T7: GRIP1_5, Q9Y3R0
T7 sequence (Q9Y3R0 568-668, limits assumed, looked up): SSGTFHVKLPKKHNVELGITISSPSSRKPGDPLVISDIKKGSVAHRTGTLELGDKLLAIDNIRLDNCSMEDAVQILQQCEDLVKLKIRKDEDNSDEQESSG

T8: PCLO, Q9Y6V0
T8 sequence (Q9Y6V0 4491-4600, limits assumed, looked up): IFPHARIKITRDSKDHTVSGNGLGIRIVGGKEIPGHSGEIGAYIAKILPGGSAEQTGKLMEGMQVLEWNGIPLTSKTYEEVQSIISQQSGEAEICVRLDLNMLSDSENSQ

T9: GRIP1_7, Q9Y3R0
T9 sequence (Q9Y3R0 999-1096, limits assumed, looked up): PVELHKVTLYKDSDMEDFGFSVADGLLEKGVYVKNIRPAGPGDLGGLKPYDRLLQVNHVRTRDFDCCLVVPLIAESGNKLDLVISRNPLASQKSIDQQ

T10: ARHGEF11, O15085
T10 sequence (O15085 42-136, limits assumed, looked up): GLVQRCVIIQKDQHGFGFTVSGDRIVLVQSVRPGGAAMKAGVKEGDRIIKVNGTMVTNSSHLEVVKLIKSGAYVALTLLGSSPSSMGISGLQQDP


Experiments:
Assay in all cases: holdup assay
Parameters in all cases: key: below the threshold = too weak to quantify, mostly under pKd 3.1 to 4
Settings in all cases: plain residues with an end cap or a label only (N-terminal biotin on a linker: ado-ado)
PDZD2_2, O15018 = biological target: T1, PDZD2_2, O15018
Inadl_10, Q8NI35 = biological target: Inadl_10, Q8NI35
GRIP1_2, Q9Y3R0 = biological target: T2, GRIP1_2, Q9Y3R0
DFNB31_2, Q9P202 = biological target: T3, DFNB31_2, Q9P202
GRIP1_3, Q9Y3R0 = biological target: T4, GRIP1_3, Q9Y3R0
GORASP1, Q9BQQ3 = biological target: GORASP1, Q9BQQ3
GRIP2_7, Q9C0E4 = biological target: GRIP2_7, Q9C0E4
MAST2, Q6P0Q8 = biological target: MAST2, Q6P0Q8
GRID2IP_2, A4D2P6 = biological target: GRID2IP_2, A4D2P6
MAGI2_5, Q86UL8 = biological target: MAGI2_5, Q86UL8
RAPGEF6, Q8TEU7 = biological target: T5, RAPGEF6, Q8TEU7
MPP6, Q9NZW5 = biological target: T6, MPP6, Q9NZW5
AHNAK1, Q09666 = biological target: AHNAK1, Q09666
GRIP1_5, Q9Y3R0 = biological target: T7, GRIP1_5, Q9Y3R0
LIMK2, P53671 = biological target: LIMK2, P53671
GIPC2, Q8TF65 = biological target: GIPC2, Q8TF65
Inadl_6, Q8NI35 = biological target: Inadl_6, Q8NI35
PCLO, Q9Y6V0 = biological target: T8, PCLO, Q9Y6V0
PDZRN4_1, Q6ZMN7 = biological target: PDZRN4_1, Q6ZMN7
SNX27, Q96L92 = biological target: SNX27, Q96L92
Inadl_3, Q8NI35 = biological target: Inadl_3, Q8NI35
GRIP1_7, Q9Y3R0 = biological target: T9, GRIP1_7, Q9Y3R0
GRIP2_6, Q9C0E4 = biological target: GRIP2_6, Q9C0E4
ARHGEF11, O15085 = biological target: T10, ARHGEF11, O15085
MAGI1_2, Q96QZ7 = biological target: MAGI1_2, Q96QZ7
Inadl_8, Q8NI35 = biological target: Inadl_8, Q8NI35
TJP2_1, Q9UDY2 = biological target: TJP2_1, Q9UDY2
Inadl_2, Q8NI35 = biological target: Inadl_2, Q8NI35
Sequence of Inadl_2, Q8NI35 (Q8NI35 238-335): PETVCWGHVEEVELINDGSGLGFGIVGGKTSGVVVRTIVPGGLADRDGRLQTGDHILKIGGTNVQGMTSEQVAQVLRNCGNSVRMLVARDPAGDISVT

Sequence of GRIP2_7, Q9C0E4 (Q9C0E4 934-1023): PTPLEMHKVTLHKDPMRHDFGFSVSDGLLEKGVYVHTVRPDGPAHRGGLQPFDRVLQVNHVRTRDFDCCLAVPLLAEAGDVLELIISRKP
Sequence of GORASP1, Q9BQQ3 (Q9BQQ3 1-208): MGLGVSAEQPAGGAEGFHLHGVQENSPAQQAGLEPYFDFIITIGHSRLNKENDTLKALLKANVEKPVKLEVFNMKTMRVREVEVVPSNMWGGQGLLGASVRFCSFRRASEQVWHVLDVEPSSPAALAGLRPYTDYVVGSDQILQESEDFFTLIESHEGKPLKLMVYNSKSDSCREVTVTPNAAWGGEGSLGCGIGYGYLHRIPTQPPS
Sequence of Inadl_10, Q8NI35 (Q8NI35 1673-1763): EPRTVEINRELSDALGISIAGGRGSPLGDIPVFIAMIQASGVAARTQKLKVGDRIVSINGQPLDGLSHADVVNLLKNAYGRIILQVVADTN
Sequence of MAGI2_5, Q86UL8 (Q86UL8 915-1017): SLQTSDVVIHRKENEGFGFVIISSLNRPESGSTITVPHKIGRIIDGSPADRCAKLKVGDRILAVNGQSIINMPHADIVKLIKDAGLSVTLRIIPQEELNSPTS
Sequence of Inadl_3, Q8NI35 (Q8NI35 359-469): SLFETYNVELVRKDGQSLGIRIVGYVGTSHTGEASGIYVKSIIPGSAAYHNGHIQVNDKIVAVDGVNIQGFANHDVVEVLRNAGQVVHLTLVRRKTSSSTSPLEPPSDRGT
Sequence of PDZRN4_1, Q6ZMN7 (Q6ZMN7 213-318): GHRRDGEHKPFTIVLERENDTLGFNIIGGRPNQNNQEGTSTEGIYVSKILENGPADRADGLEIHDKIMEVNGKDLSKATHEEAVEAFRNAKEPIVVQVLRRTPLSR
Sequence of MAGI1_2, Q96QZ7 (Q96QZ7 456-580): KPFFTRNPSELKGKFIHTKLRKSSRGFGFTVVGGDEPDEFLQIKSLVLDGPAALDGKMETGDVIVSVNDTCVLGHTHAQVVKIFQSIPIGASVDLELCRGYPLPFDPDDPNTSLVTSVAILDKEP
Sequence of LIMK2, P53671 (P53671 143-248): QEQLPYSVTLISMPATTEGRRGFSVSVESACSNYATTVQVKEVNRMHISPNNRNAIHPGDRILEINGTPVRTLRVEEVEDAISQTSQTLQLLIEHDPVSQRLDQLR
Sequence of AHNAK1, Q09666 (Q09666 4-100): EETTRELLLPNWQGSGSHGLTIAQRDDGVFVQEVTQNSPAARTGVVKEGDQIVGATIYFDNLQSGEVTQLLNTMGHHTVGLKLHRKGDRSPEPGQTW
Sequence of TJP2_1, Q9UDY2 (Q9UDY2 24-128): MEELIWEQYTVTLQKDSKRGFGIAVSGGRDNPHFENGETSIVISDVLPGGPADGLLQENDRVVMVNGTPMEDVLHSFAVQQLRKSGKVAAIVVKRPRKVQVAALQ
Sequence of Inadl_6, Q8NI35 (Q8NI35 1058-1167): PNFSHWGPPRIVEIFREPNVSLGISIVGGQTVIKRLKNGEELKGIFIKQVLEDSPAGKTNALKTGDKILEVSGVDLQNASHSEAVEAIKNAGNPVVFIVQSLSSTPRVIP
Sequence of MAST2, Q6P0Q8 (Q6P0Q8 1099-1202): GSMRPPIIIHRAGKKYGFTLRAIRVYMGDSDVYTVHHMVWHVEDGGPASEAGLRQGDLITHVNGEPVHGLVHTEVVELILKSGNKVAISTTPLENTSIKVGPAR
Sequence of Inadl_8, Q8NI35 (Q8NI35 1425-1530): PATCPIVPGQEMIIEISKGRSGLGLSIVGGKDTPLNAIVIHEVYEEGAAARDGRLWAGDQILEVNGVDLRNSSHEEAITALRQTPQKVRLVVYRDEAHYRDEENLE
Sequence of GRIP2_6, Q9C0E4 (Q9C0E4 648-740): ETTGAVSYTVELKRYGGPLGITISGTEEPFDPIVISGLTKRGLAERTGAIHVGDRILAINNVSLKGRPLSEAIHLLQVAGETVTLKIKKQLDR
Sequence of GRID2IP_2, A4D2P6 (A4D2P6 272-370): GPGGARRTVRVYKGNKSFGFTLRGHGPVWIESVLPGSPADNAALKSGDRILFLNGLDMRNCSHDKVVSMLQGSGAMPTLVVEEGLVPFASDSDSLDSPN
Sequence of GIPC2, Q8TF65 (Q8TF65 112-203): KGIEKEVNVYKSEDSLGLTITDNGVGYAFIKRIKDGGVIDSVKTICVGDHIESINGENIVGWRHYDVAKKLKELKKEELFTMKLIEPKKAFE

Row | Binder | pKd (PDZD2_2, O15018) | pKd (Inadl_10, Q8NI35) | pKd (GRIP1_2, Q9Y3R0) | pKd (DFNB31_2, Q9P202) | pKd (GRIP1_3, Q9Y3R0) | pKd (GORASP1, Q9BQQ3) | pKd (GRIP2_7, Q9C0E4) | pKd (MAST2, Q6P0Q8) | pKd (GRID2IP_2, A4D2P6) | pKd (MAGI2_5, Q86UL8) | pKd (RAPGEF6, Q8TEU7) | pKd (MPP6, Q9NZW5) | pKd (AHNAK1, Q09666) | pKd (GRIP1_5, Q9Y3R0) | pKd (LIMK2, P53671) | pKd (GIPC2, Q8TF65) | pKd (Inadl_6, Q8NI35) | pKd (PCLO, Q9Y6V0) | pKd (PDZRN4_1, Q6ZMN7) | pKd (SNX27, Q96L92) | further results
1 | ASGLDKRDYV [CLDN9, O95484] | 5.04 | below the threshold | below the threshold | below the threshold | below the threshold | below the threshold | below the threshold | 3.5 | below the threshold | below the threshold | below the threshold | 3.69 | below the threshold | below the threshold | below the threshold | below the threshold | below the threshold | below the threshold | below the threshold | 3.62 | pKd (Inadl_3, Q8NI35): below the threshold; pKd (GRIP1_7, Q9Y3R0): below the threshold; pKd (GRIP2_6, Q9C0E4): below the threshold; pKd (ARHGEF11, O15085): below the threshold; pKd (MAGI1_2, Q96QZ7): below the threshold; pKd (Inadl_8, Q8NI35): 3.91; pKd (TJP2_1, Q9UDY2): below the threshold; pKd (Inadl_2, Q8NI35): below the threshold
2 | HLRQQGSVEV [EPHB6, O15197] | below the threshold | below the threshold | below the threshold | below the threshold | below the threshold | below the threshold | below the threshold | 4.01 | below the threshold | below the threshold | below the threshold | below the threshold | below the threshold | below the threshold | below the threshold | below the threshold | below the threshold | below the threshold | below the threshold | 3.76 | pKd (Inadl_3, Q8NI35): below the threshold; pKd (GRIP1_7, Q9Y3R0): below the threshold; pKd (GRIP2_6, Q9C0E4): 3.93; pKd (ARHGEF11, O15085): 4.13; pKd (MAGI1_2, Q96QZ7): below the threshold; pKd (Inadl_8, Q8NI35): below the threshold; pKd (TJP2_1, Q9UDY2): below the threshold; pKd (Inadl_2, Q8NI35): below the threshold
3 | TGLWKSETTV [ADGRA2, Q96PE1] | 3.81 | below the threshold | below the threshold | below the threshold | below the threshold | 3.5 | below the threshold | 5.23 | below the threshold | 4.12 | below the threshold | 3.85 | below the threshold | below the threshold | below the threshold | 4.04 | below the threshold | below the threshold | 4.24 | 5.4 | pKd (Inadl_3, Q8NI35): 3.97; pKd (GRIP1_7, Q9Y3R0): below the threshold; pKd (GRIP2_6, Q9C0E4): below the threshold; pKd (ARHGEF11, O15085): 4.13; pKd (MAGI1_2, Q96QZ7): 4.92; pKd (Inadl_8, Q8NI35): 3.65; pKd (TJP2_1, Q9UDY2): below the threshold; pKd (Inadl_2, Q8NI35): below the threshold

The next lines start with results.

Row | pKd (PDZD2_2, O15018) | pKd (Inadl_10, Q8NI35) | pKd (GRIP1_2, Q9Y3R0) | pKd (DFNB31_2, Q9P202) | pKd (GRIP1_3, Q9Y3R0) | pKd (GORASP1, Q9BQQ3) | pKd (GRIP2_7, Q9C0E4) | pKd (MAST2, Q6P0Q8) | pKd (GRID2IP_2, A4D2P6) | pKd (MAGI2_5, Q86UL8) | pKd (RAPGEF6, Q8TEU7) | pKd (MPP6, Q9NZW5) | pKd (AHNAK1, Q09666) | pKd (GRIP1_5, Q9Y3R0) | pKd (LIMK2, P53671) | pKd (GIPC2, Q8TF65) | pKd (Inadl_6, Q8NI35) | pKd (PCLO, Q9Y6V0) | pKd (PDZRN4_1, Q6ZMN7) | pKd (SNX27, Q96L92) | Binder | further results
4 | 5.23 | below the threshold | below the threshold | 3.75 | below the threshold | below the threshold | below the threshold | 4.8 | 4.07 | 3.95 | below the threshold | below the threshold | below the threshold | below the threshold | below the threshold | 3.52 | below the threshold | below the threshold | 3.86 | 4.72 | EWTDERQSKV [GAB3, Q8WWW8] | pKd (Inadl_3, Q8NI35): below the threshold; pKd (GRIP1_7, Q9Y3R0): below the threshold; pKd (GRIP2_6, Q9C0E4): below the threshold; pKd (ARHGEF11, O15085): 3.75; pKd (MAGI1_2, Q96QZ7): below the threshold; pKd (Inadl_8, Q8NI35): 4.02; pKd (TJP2_1, Q9UDY2): below the threshold; pKd (Inadl_2, Q8NI35): below the threshold
5 | 5.12 | below the threshold | below the threshold | below the threshold | below the threshold | below the threshold | below the threshold | 5.6 | 4.2 | below the threshold | below the threshold | below the threshold | below the threshold | below the threshold | below the threshold | below the threshold | below the threshold | below the threshold | below the threshold | below the threshold | FTLPAESSEI [PLEKHG7, Q6ZR37] | pKd (Inadl_3, Q8NI35): below the threshold; pKd (GRIP1_7, Q9Y3R0): below the threshold; pKd (GRIP2_6, Q9C0E4): below the threshold; pKd (ARHGEF11, O15085): below the threshold; pKd (MAGI1_2, Q96QZ7): below the threshold; pKd (Inadl_8, Q8NI35): below the threshold; pKd (TJP2_1, Q9UDY2): below the threshold; pKd (Inadl_2, Q8NI35): below the threshold
